Data taken from PMC3026963 (The Biochemical journal, 2010).

Molecular target: protein kinase CK2 catalytic subunit α (human, UniProt P68400 1-391)
Assay: SEC

protein kinase CK2 catalytic subunit α, sequence (P68400 whole entry): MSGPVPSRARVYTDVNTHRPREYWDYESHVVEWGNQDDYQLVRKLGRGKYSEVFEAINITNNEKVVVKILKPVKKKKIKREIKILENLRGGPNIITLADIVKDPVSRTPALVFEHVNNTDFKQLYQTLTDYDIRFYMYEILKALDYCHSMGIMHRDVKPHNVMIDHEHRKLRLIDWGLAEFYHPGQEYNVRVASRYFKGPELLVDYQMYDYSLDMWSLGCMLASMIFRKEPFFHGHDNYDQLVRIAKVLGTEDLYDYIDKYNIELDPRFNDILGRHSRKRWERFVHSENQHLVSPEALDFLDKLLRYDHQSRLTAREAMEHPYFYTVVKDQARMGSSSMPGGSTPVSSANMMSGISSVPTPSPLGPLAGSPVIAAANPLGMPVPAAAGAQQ

B1: protein kinase CK2 non-catalytic subunit β (natural protein)
chain: not shown
- binding result: binds
